Assay results: patent publication US20140087995A1 (published 2014)
Numbered stars: 1 amine (or outer) side, 2 acyl side, 3 side chain; on linkers, the order of the positions; unused ones are H or OH. Bridge positions count the residues as written; N and C are the ends. Square brackets hold non-standard residues; d marks the D form. Side chains are listed from the residue outwards. Ends that are not written are not given here. * marks the point of attachment. C20 diacid = O=C(O)CCCCCCCCCCCCCCCCCCC(=O)*; γGlu = O=C(O)[C@H](CCC(=O)[*:2])N[*:1]

T1: rat amylin receptor (rat calcitonin receptor + rat RAMP 3) (rat, UniProt P32214 25-516; Q9JJ73 23-147)
T1 construct: whole, on cells; Membranes prepared from transiently transfected BHK tk'ts 13 cells; also called rAmylin-R; rat amylin 3(a) receptor
T1 sequence (looked up) 1: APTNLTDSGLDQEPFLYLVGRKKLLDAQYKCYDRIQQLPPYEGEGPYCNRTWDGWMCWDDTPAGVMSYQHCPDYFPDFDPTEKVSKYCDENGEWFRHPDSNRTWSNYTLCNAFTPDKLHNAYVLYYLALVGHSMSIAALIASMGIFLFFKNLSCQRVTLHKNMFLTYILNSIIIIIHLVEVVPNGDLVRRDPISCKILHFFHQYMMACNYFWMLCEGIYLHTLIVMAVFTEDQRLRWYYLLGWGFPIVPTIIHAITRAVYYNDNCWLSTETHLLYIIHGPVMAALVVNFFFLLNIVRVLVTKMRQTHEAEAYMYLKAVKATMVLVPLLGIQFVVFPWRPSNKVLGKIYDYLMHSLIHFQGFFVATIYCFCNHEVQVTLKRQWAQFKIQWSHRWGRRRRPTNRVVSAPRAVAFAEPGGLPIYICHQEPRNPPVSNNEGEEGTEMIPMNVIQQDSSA
T1 sequence (looked up) 2: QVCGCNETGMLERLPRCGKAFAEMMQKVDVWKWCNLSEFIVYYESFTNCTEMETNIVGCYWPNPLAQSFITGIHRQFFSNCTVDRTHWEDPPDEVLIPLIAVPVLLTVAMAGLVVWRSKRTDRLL

T2: rat calcitonin receptor (rat, UniProt P32214 25-516)
T2 construct: whole, on cells; Membranes prepared from transiently transfected BHK tk'ts 13 cells; also called rCTR; rat calcitonin (a) receptor
T2 sequence (looked up): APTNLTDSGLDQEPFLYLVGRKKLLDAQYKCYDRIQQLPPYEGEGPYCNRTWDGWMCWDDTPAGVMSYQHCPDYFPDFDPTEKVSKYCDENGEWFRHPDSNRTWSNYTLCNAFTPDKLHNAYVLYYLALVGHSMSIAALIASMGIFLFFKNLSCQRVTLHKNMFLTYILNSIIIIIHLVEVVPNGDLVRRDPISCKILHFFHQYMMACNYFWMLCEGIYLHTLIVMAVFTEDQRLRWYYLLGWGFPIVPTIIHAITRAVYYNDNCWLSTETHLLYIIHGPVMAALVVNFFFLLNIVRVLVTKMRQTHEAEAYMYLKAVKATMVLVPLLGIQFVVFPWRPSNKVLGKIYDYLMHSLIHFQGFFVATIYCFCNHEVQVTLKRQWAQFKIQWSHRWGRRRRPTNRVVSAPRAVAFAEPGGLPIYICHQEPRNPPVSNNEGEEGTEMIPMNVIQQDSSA

T3: rat calcitonin receptor (rat, UniProt P32214 25-516)
T3 construct: whole, on cells; Membranes of BHK tk'ts 13 cells transiently transfected with the rat calcitonin receptor; also called rCTR; rat calcitonin (a) receptor
T3 sequence (looked up): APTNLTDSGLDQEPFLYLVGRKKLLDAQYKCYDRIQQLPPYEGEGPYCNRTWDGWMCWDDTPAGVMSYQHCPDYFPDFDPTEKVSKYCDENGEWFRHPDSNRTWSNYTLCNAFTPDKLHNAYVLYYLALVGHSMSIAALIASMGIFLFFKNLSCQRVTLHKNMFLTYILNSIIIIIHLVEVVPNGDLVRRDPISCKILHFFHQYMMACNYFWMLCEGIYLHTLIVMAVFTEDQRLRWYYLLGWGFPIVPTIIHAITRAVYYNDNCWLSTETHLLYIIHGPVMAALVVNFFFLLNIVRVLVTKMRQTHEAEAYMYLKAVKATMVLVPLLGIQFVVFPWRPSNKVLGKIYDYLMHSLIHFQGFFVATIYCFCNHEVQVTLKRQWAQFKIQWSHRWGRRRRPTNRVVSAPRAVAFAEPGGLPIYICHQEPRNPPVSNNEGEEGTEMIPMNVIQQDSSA

T4: human calcitonin receptor (human, UniProt P30988 25-474)
T4 construct: whole, on cells; Membranes of a BHK tk'ts 13 cell line stably transfected with the human calcitonin receptor; also called hCTR; hCT
T4 sequence (looked up): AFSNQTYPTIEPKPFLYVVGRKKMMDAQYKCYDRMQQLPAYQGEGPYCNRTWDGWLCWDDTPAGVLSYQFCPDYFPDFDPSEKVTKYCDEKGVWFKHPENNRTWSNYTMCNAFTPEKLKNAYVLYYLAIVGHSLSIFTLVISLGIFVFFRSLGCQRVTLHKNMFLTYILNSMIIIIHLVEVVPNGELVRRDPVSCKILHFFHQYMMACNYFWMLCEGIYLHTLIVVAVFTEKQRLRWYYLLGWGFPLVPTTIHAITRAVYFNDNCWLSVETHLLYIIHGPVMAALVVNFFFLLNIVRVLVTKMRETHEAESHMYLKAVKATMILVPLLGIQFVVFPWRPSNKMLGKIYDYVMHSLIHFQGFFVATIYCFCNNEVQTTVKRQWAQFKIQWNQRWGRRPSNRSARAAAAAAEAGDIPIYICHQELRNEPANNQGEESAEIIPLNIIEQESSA

T5: rat amylin receptor (rat calcitonin receptor + rat RAMP 3) (rat, UniProt P32214 25-516; Q9JJ73 23-147)
T5 construct: whole, on cells; Membranes of BHK tk'ts 13 cells transiently transfected with the rat calcitonin receptor and rat RAMP 3; also called rAmylin-R; rat amylin 3(a) receptor
T5 sequence (looked up) 1: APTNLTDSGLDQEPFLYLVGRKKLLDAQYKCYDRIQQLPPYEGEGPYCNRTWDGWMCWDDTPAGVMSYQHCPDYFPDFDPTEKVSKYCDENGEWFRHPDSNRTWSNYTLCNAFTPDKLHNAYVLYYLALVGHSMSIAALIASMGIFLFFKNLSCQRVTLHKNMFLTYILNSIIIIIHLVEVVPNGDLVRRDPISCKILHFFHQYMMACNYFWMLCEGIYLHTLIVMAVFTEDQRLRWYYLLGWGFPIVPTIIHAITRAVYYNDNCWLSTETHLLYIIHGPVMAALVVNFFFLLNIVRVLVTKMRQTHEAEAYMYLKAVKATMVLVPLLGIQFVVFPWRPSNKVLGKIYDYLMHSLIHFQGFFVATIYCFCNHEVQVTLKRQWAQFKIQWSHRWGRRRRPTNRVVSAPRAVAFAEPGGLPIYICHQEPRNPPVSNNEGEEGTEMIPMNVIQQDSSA
T5 sequence (looked up) 2: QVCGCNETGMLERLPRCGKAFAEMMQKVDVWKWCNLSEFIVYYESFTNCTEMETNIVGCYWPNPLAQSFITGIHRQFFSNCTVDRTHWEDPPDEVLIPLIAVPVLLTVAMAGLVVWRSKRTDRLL


Tests used:
[1] = target: T1, rat amylin receptor (rat calcitonin …); assay: SPA competition vs 125I-rat amylin, membranes (Assay VI)
rat calcitonin receptor [2] = target: T2, rat calcitonin receptor; assay: SPA competition vs 125I-calcitonin, membranes (Assay VIII)
rat calcitonin receptor [3] = target: T3, rat calcitonin receptor; assay: SPA competition vs 125I-calcitonin, membranes with rat CTR (Assay VIII)
rat calcitonin receptor [4] = target: T3, rat calcitonin receptor; assay: IC50 at rCTR divided by IC50 at rAmylin-R (reference)
[5] = target: T4, human calcitonin receptor; assay: IC50 at hCTR divided by IC50 at hAmylin-R (reference)
How it was run: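 Scintillation proximity competition binding on cell membranes at 35 ng/μL with SPA beads, in 50 mM Hepes pH 7.4, 1 mM CaCl2, 5 mM MgCl₂, 0.1% OA, 0.02% Tween20. Incubated 120 min at 25° C with shaking. IC₅₀ from one-site competition fit.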

[6] = target: T5, rat amylin receptor (rat calcitonin …); assay: SPA competition vs 125I-rat amylin, membranes with rat CTR + rat RAMP3 (Assay VI)

| IC50 [1] | IC50 (rat calcitonin receptor [2]) | IC50 (rat calcitonin receptor [3]) | Ratio rCT/rAmylin binding (rat calcitonin receptor [4]) | Ratio hCT/hAmylin binding [5] | IC50 [6] | Binder |
| --- | --- | --- | --- | --- | --- | --- |
| 1.69 nM | 536 nM |  |  |  |  | K([γGlu-γGlu-C20 diacid])CNTATCATQRLA[dD]FLRHSSPNFGAIPSSTNVGSRTY-NH2 (disulfide 2-7; N-terminus assumed; SMILES CC[C@H](C)[C@H](NC(=O)[C@H](C)NC(=O)CNC(=O)[C@H](Cc1ccccc1)NC(=O)[C@H](CC(N)=O)NC(=O)[C@@H]1CCCN1C(=O)[C@H](CO)NC(=O)[C@H](CO)NC(=O)[C@H](Cc1c[nH]cn1)NC(=O)[C@H](CCCNC(=N)N)NC(=O)[C@H](CC(C)C)NC(=O)[C@H](Cc1ccccc1)NC(=O)[C@@H](CC(=O)O)NC(=O)[C@H](C)NC(=O)[C@H](CC(C)C)NC(=O)[C@H](CCCNC(=N)N)NC(=O)[C@H](CCC(N)=O)NC(=O)[C@@H](NC(=O)[C@H](C)NC(=O)[C@@H]1CSSC[C@H](NC(=O)[C@@H](N)CCCCNC(=O)CC[C@H](NC(=O)CC[C@H](NC(=O)CCCCCCCCCCCCCCCCCCC(=O)O)C(=O)O)C(=O)O)C(=O)N[C@@H](CC(N)=O)C(=O)N[C@@H]([C@@H](C)O)C(=O)N[C@@H](C)C(=O)N[C@@H]([C@@H](C)O)C(=O)N1)[C@@H](C)O)C(=O)N1CCC[C@H]1C(=O)N[C@@H](CO)C(=O)N[C@@H](CO)C(=O)N[C@H](C(=O)N[C@@H](CC(N)=O)C(=O)N[C@H](C(=O)NCC(=O)N[C@@H](CO)C(=O)N[C@@H](CCCNC(=N)N)C(=O)N[C@H](C(=O)N[C@@H](Cc1ccc(O)cc1)C(N)=O)[C@@H](C)O)C(C)C)[C@@H](C)O) |
|  | 30.9 nM |  |  |  |  | KCNTATCATQRLADFLRHSSPNFGAIPSSTNVGSRTY-NH2 (disulfide 2-7, Not acylated) [[Asp14,Arg17,Pro21,Pro27,Arg35]-h-amylin] |
|  |  | 112 nM | 201 | 69.7 | 0.558 nM | K([γGlu-C20 diacid])CNTATCATQRLANFLRHSSPNFGAIPSSTNVGSNTY-NH2 (disulfide 2-7; N-terminus assumed; SMILES CC[C@H](C)[C@H](NC(=O)[C@H](C)NC(=O)CNC(=O)[C@H](Cc1ccccc1)NC(=O)[C@H](CC(N)=O)NC(=O)[C@@H]1CCCN1C(=O)[C@H](CO)NC(=O)[C@H](CO)NC(=O)[C@H](Cc1c[nH]cn1)NC(=O)[C@H](CCCNC(=N)N)NC(=O)[C@H](CC(C)C)NC(=O)[C@H](Cc1ccccc1)NC(=O)[C@H](CC(N)=O)NC(=O)[C@H](C)NC(=O)[C@H](CC(C)C)NC(=O)[C@H](CCCNC(=N)N)NC(=O)[C@H](CCC(N)=O)NC(=O)[C@@H](NC(=O)[C@H](C)NC(=O)[C@@H]1CSSC[C@H](NC(=O)[C@@H](N)CCCCNC(=O)CC[C@H](NC(=O)CCCCCCCCCCCCCCCCCCC(=O)O)C(=O)O)C(=O)N[C@@H](CC(N)=O)C(=O)N[C@@H]([C@@H](C)O)C(=O)N[C@@H](C)C(=O)N[C@@H]([C@@H](C)O)C(=O)N1)[C@@H](C)O)C(=O)N1CCC[C@H]1C(=O)N[C@@H](CO)C(=O)N[C@@H](CO)C(=O)N[C@H](C(=O)N[C@@H](CC(N)=O)C(=O)N[C@H](C(=O)NCC(=O)N[C@@H](CO)C(=O)N[C@@H](CC(N)=O)C(=O)N[C@H](C(=O)N[C@@H](Cc1ccc(O)cc1)C(N)=O)[C@@H](C)O)C(C)C)[C@@H](C)O, modifications are with respect to human amylin; also called compound 48) [N^ε1-[(4S)-4-carboxy-4-(19-carboxynonadecanoylamino)butanoyl]-[Arg17,Pro21,Pro27]-h-amylin] |
